Laboratory results published in the supplement of paper PMC11316812.
± gives the standard deviation of the averaged measurements.

Assays:
MCF7 = test: percentage of EdU-negative (G0-arrested) nuclei per well, 72 h; higher = more G0 arrest; details: reference: sequence is the full UniProt precursor, the tested protein was the secreted form or ectodomain
hTERT-HMEC = test: as above; details: reference: sequence is the full UniProt precursor, the tested protein was the secreted form or ectodomain
[1] = protein concentration 0.0225 µM
[2] = protein concentration 0.01375 µM
[3] = protein concentration 0.1375 µM
[4] = protein concentration 0.00575 µM
[5] = protein concentration 0.0575 µM
[6] = protein concentration 0.0175 µM
[7] = protein concentration 0.0134286 µM
[8] = protein concentration 0.134286 µM
[9] = protein concentration 0.03125 µM
[10] = protein concentration 0.3125 µM
[11] = protein concentration 0.0257143 µM
[12] = protein concentration 0.257143 µM
[13] = protein concentration 0.0242225 µM
[14] = protein concentration 0.242225 µM
[15] = protein concentration 0.0165714 µM
[16] = protein concentration 0.165714 µM
[17] = protein concentration 0.0191429 µM
[18] = protein concentration 0.191429 µM
[19] = protein concentration 0.00625 µM
[20] = protein concentration 0.0625 µM
[21] = protein concentration 0.0357143 µM
[22] = protein concentration 0.357143 µM
[23] = protein concentration 0.00525 µM
[24] = protein concentration 0.0525 µM
[25] = protein concentration 0.012015 µM
[26] = protein concentration 0.12015 µM
[27] = protein concentration 0.0111429 µM
[28] = protein concentration 0.111429 µM
[29] = protein concentration 0.00725 µM
[30] = protein concentration 0.0725 µM
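Also: secreted proteins added to cultured cells, EdU pulse at the end, nuclei found by Hoechst imaging, EdU status from nuclear versus surrounding ring intensity ratio, PBS as neutral control.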

Q9ULB1, sequence (chain, as listed by the source): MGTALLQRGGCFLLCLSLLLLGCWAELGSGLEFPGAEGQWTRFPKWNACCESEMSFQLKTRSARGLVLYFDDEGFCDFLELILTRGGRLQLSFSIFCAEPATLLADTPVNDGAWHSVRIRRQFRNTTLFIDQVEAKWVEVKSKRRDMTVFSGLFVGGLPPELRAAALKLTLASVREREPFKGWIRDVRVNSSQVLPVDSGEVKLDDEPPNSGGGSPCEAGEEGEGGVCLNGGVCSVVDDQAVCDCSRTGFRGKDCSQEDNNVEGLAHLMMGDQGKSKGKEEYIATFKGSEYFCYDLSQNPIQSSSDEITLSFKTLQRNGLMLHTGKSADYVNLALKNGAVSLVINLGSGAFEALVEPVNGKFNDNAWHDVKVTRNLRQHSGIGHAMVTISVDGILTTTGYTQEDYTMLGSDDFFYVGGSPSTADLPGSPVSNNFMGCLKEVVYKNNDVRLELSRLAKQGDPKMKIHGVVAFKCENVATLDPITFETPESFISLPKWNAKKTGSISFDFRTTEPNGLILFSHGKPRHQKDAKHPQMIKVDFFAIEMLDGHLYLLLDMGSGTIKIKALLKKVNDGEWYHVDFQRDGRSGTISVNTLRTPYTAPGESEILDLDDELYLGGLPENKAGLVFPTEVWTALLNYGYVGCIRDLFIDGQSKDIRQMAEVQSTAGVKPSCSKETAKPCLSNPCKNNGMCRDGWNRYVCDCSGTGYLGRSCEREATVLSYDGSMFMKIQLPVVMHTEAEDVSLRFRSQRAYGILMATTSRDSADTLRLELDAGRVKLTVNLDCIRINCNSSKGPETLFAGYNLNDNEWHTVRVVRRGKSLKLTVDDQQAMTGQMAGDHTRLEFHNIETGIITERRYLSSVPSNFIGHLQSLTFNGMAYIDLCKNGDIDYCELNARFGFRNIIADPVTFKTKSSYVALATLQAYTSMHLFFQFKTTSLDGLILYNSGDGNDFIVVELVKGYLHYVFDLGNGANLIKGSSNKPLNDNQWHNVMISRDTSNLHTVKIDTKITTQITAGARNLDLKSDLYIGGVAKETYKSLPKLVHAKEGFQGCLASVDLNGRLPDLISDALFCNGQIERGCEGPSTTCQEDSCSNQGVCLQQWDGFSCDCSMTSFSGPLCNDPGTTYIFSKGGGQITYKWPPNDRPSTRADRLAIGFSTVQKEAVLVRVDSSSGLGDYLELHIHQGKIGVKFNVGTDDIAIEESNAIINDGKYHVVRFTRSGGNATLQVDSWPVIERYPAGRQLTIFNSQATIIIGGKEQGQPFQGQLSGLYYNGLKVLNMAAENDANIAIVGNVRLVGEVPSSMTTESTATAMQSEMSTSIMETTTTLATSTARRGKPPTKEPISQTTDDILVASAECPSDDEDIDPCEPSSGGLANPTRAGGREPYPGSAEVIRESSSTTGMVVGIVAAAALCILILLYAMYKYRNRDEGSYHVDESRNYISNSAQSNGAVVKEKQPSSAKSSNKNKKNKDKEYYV
Q6UXN8, sequence (chain, as listed by the source): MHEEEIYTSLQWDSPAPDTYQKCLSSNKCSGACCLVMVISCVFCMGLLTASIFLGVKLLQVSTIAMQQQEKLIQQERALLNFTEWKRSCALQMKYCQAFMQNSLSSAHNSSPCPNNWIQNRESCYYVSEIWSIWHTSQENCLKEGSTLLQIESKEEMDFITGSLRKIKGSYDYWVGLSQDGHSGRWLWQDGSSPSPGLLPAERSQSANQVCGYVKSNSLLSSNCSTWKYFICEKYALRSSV
Q6ZMJ2, sequence (chain, as listed by the source): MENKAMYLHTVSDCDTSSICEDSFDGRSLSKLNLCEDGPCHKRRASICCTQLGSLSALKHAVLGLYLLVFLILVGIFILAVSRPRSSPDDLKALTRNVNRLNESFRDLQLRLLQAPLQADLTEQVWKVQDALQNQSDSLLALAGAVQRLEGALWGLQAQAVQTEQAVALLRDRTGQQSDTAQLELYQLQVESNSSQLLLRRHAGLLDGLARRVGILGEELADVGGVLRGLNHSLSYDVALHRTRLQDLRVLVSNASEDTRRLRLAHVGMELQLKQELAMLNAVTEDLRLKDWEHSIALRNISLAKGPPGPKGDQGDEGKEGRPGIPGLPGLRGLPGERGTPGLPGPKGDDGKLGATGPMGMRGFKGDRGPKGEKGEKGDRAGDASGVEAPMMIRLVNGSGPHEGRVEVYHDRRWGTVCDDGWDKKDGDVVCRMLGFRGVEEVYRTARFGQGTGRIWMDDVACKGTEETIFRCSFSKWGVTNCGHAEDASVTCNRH
Q8IWL1, sequence (chain, as listed by the source): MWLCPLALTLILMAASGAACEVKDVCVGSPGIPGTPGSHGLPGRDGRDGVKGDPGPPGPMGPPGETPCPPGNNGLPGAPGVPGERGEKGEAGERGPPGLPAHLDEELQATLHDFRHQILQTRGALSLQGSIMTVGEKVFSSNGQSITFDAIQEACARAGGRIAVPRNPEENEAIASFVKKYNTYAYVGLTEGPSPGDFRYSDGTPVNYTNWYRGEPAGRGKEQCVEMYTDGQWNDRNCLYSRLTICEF
Q9BZP6, sequence (chain, as listed by the source): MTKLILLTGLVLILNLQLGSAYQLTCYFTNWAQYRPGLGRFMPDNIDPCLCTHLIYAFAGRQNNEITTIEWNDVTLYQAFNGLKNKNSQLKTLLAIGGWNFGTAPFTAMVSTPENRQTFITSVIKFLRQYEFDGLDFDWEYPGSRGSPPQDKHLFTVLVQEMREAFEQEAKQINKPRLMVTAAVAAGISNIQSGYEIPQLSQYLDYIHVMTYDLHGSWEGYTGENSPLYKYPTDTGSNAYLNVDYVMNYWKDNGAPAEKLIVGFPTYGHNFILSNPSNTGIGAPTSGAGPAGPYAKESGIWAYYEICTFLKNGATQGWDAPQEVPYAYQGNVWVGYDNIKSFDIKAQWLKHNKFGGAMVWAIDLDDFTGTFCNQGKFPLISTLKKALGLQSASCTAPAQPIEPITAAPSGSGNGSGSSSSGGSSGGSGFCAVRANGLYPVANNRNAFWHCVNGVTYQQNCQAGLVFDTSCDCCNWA
Q9BXJ3, sequence (chain, as listed by the source): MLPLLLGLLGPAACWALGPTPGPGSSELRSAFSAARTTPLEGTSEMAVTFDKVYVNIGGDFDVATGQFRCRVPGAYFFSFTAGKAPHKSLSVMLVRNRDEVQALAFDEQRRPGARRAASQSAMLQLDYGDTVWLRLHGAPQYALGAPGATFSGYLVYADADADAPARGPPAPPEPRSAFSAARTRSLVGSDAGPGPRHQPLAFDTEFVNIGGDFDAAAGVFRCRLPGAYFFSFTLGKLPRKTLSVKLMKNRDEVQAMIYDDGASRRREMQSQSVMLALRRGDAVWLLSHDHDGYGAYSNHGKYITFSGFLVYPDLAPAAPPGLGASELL
Q8WXD2, sequence (chain, as listed by the source): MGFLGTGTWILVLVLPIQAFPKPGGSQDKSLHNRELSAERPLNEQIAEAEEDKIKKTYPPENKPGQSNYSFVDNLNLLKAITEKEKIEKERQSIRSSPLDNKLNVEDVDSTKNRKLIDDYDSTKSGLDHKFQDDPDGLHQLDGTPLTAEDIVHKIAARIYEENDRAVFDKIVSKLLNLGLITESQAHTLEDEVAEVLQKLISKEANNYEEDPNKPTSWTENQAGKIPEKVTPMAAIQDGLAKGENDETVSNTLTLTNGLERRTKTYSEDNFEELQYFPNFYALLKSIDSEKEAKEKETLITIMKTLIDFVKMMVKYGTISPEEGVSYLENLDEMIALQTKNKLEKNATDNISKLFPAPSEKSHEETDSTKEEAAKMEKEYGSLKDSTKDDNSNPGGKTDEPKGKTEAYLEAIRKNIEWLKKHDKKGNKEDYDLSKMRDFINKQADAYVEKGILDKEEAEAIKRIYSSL
Q8IWL2, sequence (chain, as listed by the source): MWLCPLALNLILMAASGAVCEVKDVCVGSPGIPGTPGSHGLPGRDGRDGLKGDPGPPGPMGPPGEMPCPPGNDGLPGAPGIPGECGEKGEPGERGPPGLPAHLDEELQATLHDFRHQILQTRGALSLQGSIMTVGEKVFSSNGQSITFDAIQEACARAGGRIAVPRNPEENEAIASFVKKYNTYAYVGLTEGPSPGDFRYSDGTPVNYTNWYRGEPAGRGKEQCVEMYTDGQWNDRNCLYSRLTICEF
Q9UBP4, sequence (chain, as listed by the source): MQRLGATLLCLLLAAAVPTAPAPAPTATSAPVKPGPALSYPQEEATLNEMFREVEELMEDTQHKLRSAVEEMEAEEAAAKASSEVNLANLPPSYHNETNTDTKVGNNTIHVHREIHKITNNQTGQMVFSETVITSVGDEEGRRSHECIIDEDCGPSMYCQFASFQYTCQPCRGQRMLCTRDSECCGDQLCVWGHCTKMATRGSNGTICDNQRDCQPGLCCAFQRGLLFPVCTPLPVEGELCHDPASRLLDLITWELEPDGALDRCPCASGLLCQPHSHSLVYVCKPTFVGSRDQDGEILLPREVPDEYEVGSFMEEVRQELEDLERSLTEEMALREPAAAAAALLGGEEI

MYTAIPQSGSPFPGSVQDPGLHVWRVEKLKPVPVAQENQGVFFSGDSYLVLHNGPEEVSHLHLWIGQQSSRDEQGACAVLAVHLNTLLGERPVQHREVQGNESDLFMSYFPRGLKYQEGGVESAFHKTSTGAPAAIKKLYQVKGKKNIRATERALNWDSFNTGDCFILDLGQNIFAWCGGKSNILERNKARDLALAIRDSERQGKAQVEIVTDGEEPAEMIQVLGPKPALKEGNPEEDLTADKANAQAAALYKVSDATGQMNLTKVADSSPFALELLISDDCFVLDNGLCGKIYIWKGRKANEKERQAALQVAEGFISRMQYAPNTQVEILPQGHESPIFKQFFKDWK
percentage of EdU-negative (MCF7; [1]): 24.6 ± 2.7% | percentage of EdU-negative (MCF7; protein concentration 0.225 µM): 26.02 ± 0.14% | percentage of EdU-negative (hTERT-HMEC; [1]): 5.3073 ± 0.0047% | percentage of EdU-negative (hTERT-HMEC; protein concentration 0.225 µM): 6.38 ± 0.68%

O60486
percentage of EdU-negative (MCF7; [2]): 23.37 ± 0.13% | percentage of EdU-negative (MCF7; [3]): 26.9 ± 3% | percentage of EdU-negative (hTERT-HMEC; [2]): 4.77 ± 0.19% | percentage of EdU-negative (hTERT-HMEC; [3]): 10.8 ± 1%

P0C0L4
percentage of EdU-negative (MCF7; [4]): 24.22 ± 0.12% | percentage of EdU-negative (MCF7; [5]): 26.1 ± 0.47% | percentage of EdU-negative (hTERT-HMEC; [4]): 4.91 ± 0.16% | percentage of EdU-negative (hTERT-HMEC; [5]): 5.66 ± 0.38%

P08572
percentage of EdU-negative (MCF7; protein concentration 0.008 µM): 24.1 ± 2.1% | percentage of EdU-negative (MCF7; protein concentration 0.08 µM): 25.4 ± 0.67% | percentage of EdU-negative (hTERT-HMEC; protein concentration 0.008 µM): 4.54 ± 0.088% | percentage of EdU-negative (hTERT-HMEC; protein concentration 0.08 µM): 5.63 ± 0.46%

P16144
percentage of EdU-negative (MCF7; [6]): 24.1 ± 3.2% | percentage of EdU-negative (MCF7; protein concentration 0.175 µM): 28.6 ± 0.6% | percentage of EdU-negative (hTERT-HMEC; [6]): 5.31 ± 0.28% | percentage of EdU-negative (hTERT-HMEC; protein concentration 0.175 µM): 5.29 ± 0.16%

P20908
percentage of EdU-negative (MCF7; [7]): 23.71 ± 0.12% | percentage of EdU-negative (MCF7; [8]): 28.6 ± 1.4% | percentage of EdU-negative (hTERT-HMEC; [7]): 5.6 ± 0.17% | percentage of EdU-negative (hTERT-HMEC; [8]): 25.8 ± 0.52%

P32881
percentage of EdU-negative (MCF7; [9]): 46 ± 0.63% | percentage of EdU-negative (MCF7; [10]): 49.3 ± 0.71% | percentage of EdU-negative (hTERT-HMEC; [9]): 25.9 ± 1.2% | percentage of EdU-negative (hTERT-HMEC; [10]): 30.4 ± 4.1%

Q6UXN8
percentage of EdU-negative (MCF7; [1]): 24.9 ± 2.2% | percentage of EdU-negative (MCF7; protein concentration 0.225 µM): 25.2 ± 1.4% | percentage of EdU-negative (hTERT-HMEC; [1]): 4.27 ± 1% | percentage of EdU-negative (hTERT-HMEC; protein concentration 0.225 µM): 4.93 ± 0.51%

Q6ZMJ2
percentage of EdU-negative (MCF7; [11]): 24.7 ± 1.6% | percentage of EdU-negative (MCF7; [12]): 24.2 ± 0.89% | percentage of EdU-negative (hTERT-HMEC; [11]): 4.96 ± 0.49% | percentage of EdU-negative (hTERT-HMEC; [12]): 8.139 ± 0.079%

Q8IWL1
percentage of EdU-negative (MCF7; [1]): 28.1 ± 0.35% | percentage of EdU-negative (MCF7; protein concentration 0.225 µM): 26.4 ± 0.85% | percentage of EdU-negative (hTERT-HMEC; [1]): 5.29 ± 1.1% | percentage of EdU-negative (hTERT-HMEC; protein concentration 0.225 µM): 6.43 ± 1.3%

Q8IWL2
percentage of EdU-negative (MCF7; [9]): 25.4 ± 0.46% | percentage of EdU-negative (MCF7; [10]): 26.7 ± 0.54% | percentage of EdU-negative (hTERT-HMEC; [9]): 5.36 ± 0.08% | percentage of EdU-negative (hTERT-HMEC; [10]): 6.18 ± 0.17%

Q8NBS9
percentage of EdU-negative (MCF7; [13]): 27.1 ± 0.28% | percentage of EdU-negative (MCF7; [14]): 27.4 ± 0.94% | percentage of EdU-negative (hTERT-HMEC; [13]): 4.77 ± 0.42% | percentage of EdU-negative (hTERT-HMEC; [14]): 8.37 ± 0.54%

Q8WXD2
percentage of EdU-negative (MCF7; [15]): 25.6 ± 3.6% | percentage of EdU-negative (MCF7; [16]): 29.2 ± 1.7% | percentage of EdU-negative (hTERT-HMEC; [15]): 5.59 ± 0.58% | percentage of EdU-negative (hTERT-HMEC; [16]): 6.19 ± 0.24%

Q9BXJ3
percentage of EdU-negative (MCF7; [17]): 27.3 ± 3.6% | percentage of EdU-negative (MCF7; [18]): 23.8 ± 1.1% | percentage of EdU-negative (hTERT-HMEC; [17]): 5.17 ± 0.79% | percentage of EdU-negative (hTERT-HMEC; [18]): 4.77 ± 0.24%

Q9BXP8
percentage of EdU-negative (MCF7; [19]): 26.6 ± 1.2% | percentage of EdU-negative (MCF7; [20]): 28.7 ± 1.2% | percentage of EdU-negative (hTERT-HMEC; [19]): 5.11 ± 0.6% | percentage of EdU-negative (hTERT-HMEC; [20]): 6.47 ± 0.67%

Q9BYZ8
percentage of EdU-negative (MCF7; protein concentration 0.02 µM): 24.8 ± 0.7% | percentage of EdU-negative (MCF7; protein concentration 0.2 µM): 29.6 ± 2.5% | percentage of EdU-negative (hTERT-HMEC; protein concentration 0.02 µM): 5.55 ± 0.64% | percentage of EdU-negative (hTERT-HMEC; protein concentration 0.2 µM): 19.9 ± 4.5%

Q9BZP6
percentage of EdU-negative (MCF7; [21]): 23.1 ± 1.2% | percentage of EdU-negative (MCF7; [22]): 27.6 ± 0.63% | percentage of EdU-negative (hTERT-HMEC; [21]): 5.02 ± 0.9% | percentage of EdU-negative (hTERT-HMEC; [22]): 6.66 ± 0.26%

Q9BZZ2
percentage of EdU-negative (MCF7; [23]): 26.9 ± 2.3% | percentage of EdU-negative (MCF7; [24]): 31.1 ± 2.4% | percentage of EdU-negative (hTERT-HMEC; [23]): 4.58 ± 0.46% | percentage of EdU-negative (hTERT-HMEC; [24]): 21.5 ± 2.5%

Q9HBE5
percentage of EdU-negative (MCF7; [21]): 24.6 ± 3% | percentage of EdU-negative (MCF7; [22]): 26.38 ± 0.26% | percentage of EdU-negative (hTERT-HMEC; [21]): 4.85 ± 0.64% | percentage of EdU-negative (hTERT-HMEC; [22]): 5.88 ± 0.38%

Q9NP99
percentage of EdU-negative (MCF7; [1]): 25.2 ± 3.3% | percentage of EdU-negative (MCF7; protein concentration 0.225 µM): 25.7 ± 1.1% | percentage of EdU-negative (hTERT-HMEC; [1]): 4.69 ± 0.52% | percentage of EdU-negative (hTERT-HMEC; protein concentration 0.225 µM): 5.446 ± 0.054%

Q9NQS3
percentage of EdU-negative (MCF7; [1]): 25.9 ± 3.8% | percentage of EdU-negative (MCF7; protein concentration 0.225 µM): 26.1 ± 2.9% | percentage of EdU-negative (hTERT-HMEC; [1]): 4.83 ± 1.2% | percentage of EdU-negative (hTERT-HMEC; protein concentration 0.225 µM): 4.728 ± 0.0098%

Q9UBP4
percentage of EdU-negative (MCF7; [25]): 24.3 ± 2.6% | percentage of EdU-negative (MCF7; [26]): 25.52 ± 0.066% | percentage of EdU-negative (hTERT-HMEC; [25]): 5.79 ± 1.3% | percentage of EdU-negative (hTERT-HMEC; [26]): 6.35 ± 0.93%

Q9ULB1
percentage of EdU-negative (MCF7; [27]): 25.5 ± 2.5% | percentage of EdU-negative (MCF7; [28]): 26.3 ± 2.4% | percentage of EdU-negative (hTERT-HMEC; [27]): 5.3 ± 0.36% | percentage of EdU-negative (hTERT-HMEC; [28]): 9.04 ± 0.11%

Q9ULL4
percentage of EdU-negative (MCF7; [29]): 23.6 ± 1.5% | percentage of EdU-negative (MCF7; [30]): 27.8 ± 0.59% | percentage of EdU-negative (hTERT-HMEC; [29]): 5.08 ± 0.93% | percentage of EdU-negative (hTERT-HMEC; [30]): 5.74 ± 0.25%

Q9Y6N7
percentage of EdU-negative (MCF7; [1]): 27 ± 0.88% | percentage of EdU-negative (MCF7; protein concentration 0.225 µM): 25.6 ± 1.4% | percentage of EdU-negative (hTERT-HMEC; [1]): 5.33 ± 0.86% | percentage of EdU-negative (hTERT-HMEC; protein concentration 0.225 µM): 5.81 ± 0.72%
